From the DeepSol protein solubility set

Assay: soluble on expression in E. coli; label from the status in PepcDB or PDB records

Row | Sequence | soluble on expression in E. coli
1 | MDFVSEMNKILQMELEQFKEFIQKKLEEDKNYLEKLFWLPNGSQMTVLNYLIEQYSEPKLGIDDANRDLLAKIDFVLHEAKDVNVGEPLHQAIVAGKISLALHLLGVDENNFTPGESEKTDVLSILSKVRKKIEESFNHVKRCFFDVDKRDGYGRTLLSLALDAKRQELLIAILARNPIVHATTLRSSAYVPFQPIHQAVVLDYAEGITLLASMGAQLTNPLGSMRDTPVILAARLGKINALAALLELPTQSLSLESENNHLFEDKQTGHTAVEELCERMANENDKADALRGIAMLICRGAEPPRNEKMRNLLSSNRVAFLKAVSTYLADKPQLVDAFVERCHLRESALHNIVYADHSWGSSIRHLLGVPSEAALIVEELVTRKYSDPSFASENVSSLSTTATENLRSERNPLKLYAEFVRRYTQAYDSQMITNRWSTMRWMIAEGNCDWDTVVRYSKNHPTSRTRIVLNEMFNPIPRVHEDIESQQSSPRVVLK | not soluble
2 | MDFWPEFMATSWGREFVAGGFGGVAGIISGYPLDTLRIRQQQSSKSGSAFSILRRMLAIEGPSSLYRGMAAPLASVTFQNAMVFQIYAIFSRSFDSSVPLVEPPSYRGVALGGVATGAVQSLLLTPVELIKIRLQLQQTKSGPITLAKSILRRQGLQGLYRGLTITVLRDAPAHGLYFWTYEYVRERLHPGCRKTGQENLRTMLVAGGLAGVASWVACYPLDVVKTRLQQGHGAYEGIADCFRKSVKQEGYTVLWRGLGTAVARAFVVNGAIFAAYEVALRCLFNQSPSPDIVTGD | soluble
3 | MDGALLIDKPKGITSTEVVERVKEKLKARKAGHTGTLDPIATGLLIILINKATRFSQFFIGMPKTYRFTVKFGAETDTYDAQGKVVETYEGELNCDKLKEVLNEFRGEILQTPPPFSAKKIKGRRAYELARKGKKVELKPVKITVYSLELLSCNPREKEAEFLAEISSGGYVRSLAYDIGKKLGIGGYMKELRRLKIDEISVEEAVSLEEFLSSENPEEYVLPVDTLFRVIPEVRLNTFEAGKILQGKRILIKNYDYEGLVKIYEDSKFIGIGELKGGVLSPKRLLV | soluble
4 | MDGHHVDARPVEPVQGERDGRAGGSGMSLIKSVRHWLRRHPTVATEPATPPARGAHRGQVDHVILFDGTCSSLEAGHETNVGLIFKLLREERRSVQRTIYYEPGLQWGGWLRIGDLVQGKGLNRQIRRAYGYLASHYQPGDRIFLFGYSRGAYAARSLAGVIDRVGLLRREEATERNVRLAWRHYEQGSIRPHARAFSRRHCHARVEIEMVGIFDTVKALGLRLPLLWRLSEDRHAFHSHKLGRTVRHGFHALALDETRTVFEPVLWDYPYHGQIVEQAWFRGGHGDIGGQLAGGRHGSRLLSNIPLVWMLERATHCGLQLPEGWRARHPCDVTAPMTSMYAGWGKIFLSRQRRPTLRCPTEYIHPTALRPEPRRRKWRLRWGGAPEGEPTQGLEHHHHHH | not soluble
5 | MDGNAPEPRYWEKMRLVAEVLKAVEGPIYIATHVDPDGDAIGSSLGLYRALKALGKEAYWVADPPRFLRFLPKEEEYSDPVEKLPPGATLVALDSAEPSRVVGVPVEGFVINIDHHGTNPRFGHLHVVDPSKAATAQMVKDLIDLLGVEWTAEIATPVLTGILTDTGNFRFANTTPEVLRVAAELLGYGVKLAELTDRLQFRPPSYFRLMGQVLSTVAFHFGGLLVTAHLPEEAGAEEDSDDFVGLIRYVEGSVVSVFLRKREEGVKVSIRSRGGVSAQNIALKLGGGGHVPAAGATLKGLDLDQAYERVLEAVREELTRAGYLLEHHHHHH | not soluble
6 | MDGSQGSTDYGDHVVLRYGGTREMVPLIRHEQMLDMLMERARQIVQGFGNLDTRNMYLFRHEYNSPTLLYPITSASQITSGSILEIILVDRTEAAVIPHVVEPESYMRPTFCDFCGEMLTGLMRQGVKCKNCNGNFHKRCSNAARNNCGAPGAPGAQPSRPPILPPIPTTPTGFPVAALSTPTGLPHTLIEHSYRQFTVCKVCDHLLVGLVKQGLKCRDCGVNVHRKCAMELASNCVLSENAISRVNFTDPEGPGSSSSDNIPLFRLPGQVGTRATEKKKLEGWMMHFILSDPERRLKHYWMMQSNAIHLYNEYSEGIGVNPNRVYRIIPLAEITSVVQNNGKSVLAKHPPHCFEIRTTTNTVFCVGEDYHAFSGGPPKKIPRSMSVRPSSNTTMWFQFIKESLQPPSRNEDNAEQALEFANLYQVLSDKTLGSGQFGTVYSAIQRHSGKEVAVKVISKERFSKKGSGAESMRAEVAILQQTCHPGIVCLEFMCETKDKIFVVMEKMNGDMLEMILSQELGRLNSRATKFLLVQILCALKYLHDQGIAHCDLKPENVLLSDMGSNFPQTKICDFGYARFIPESQFRKTVVGTPAYLPPEVLQRKGYNKSLDMWSVGVIIYVTLSGTFPFNEGEEISEQIQNASFMFPTEPWSEVEPLAVDLIQKLLKVEIEARMSIEQCLDHGWLKGEQLYRDLRDLEVRLNTPRYLTSPQDDILYGTLVNP | not soluble
